Data on three molecules can be found in US20250145705A1 (SHANDONG SIMCERE BIOPHARMACEUTICAL, published 2025).

As a reminder, the EC50 is the concentration needed to bring the measured effect to its halfway point.

“And” between values parts separate entries of the source, which are not always exact repeats. Equal values may be shown once.

The target in assay [1] is T1, human GPRC5D (human, UniProt Q9NZD1 1-345).
T1 construct: the cell line is named under assay; also called hGPRC5D; G protein coupled receptor C5 family subtype D
Description: FACS, NCI-H929 cells. How it is done:
(§1) The desired cells were scale-up cultured in a T-75 cell culture flask to the logarithmic growth phase. NCI-H929, MolP-8 and RPMI-8226 cells were collected and washed with PBS buffer 2 times. After counting the cells, the cell pellet was resuspended with [PBS+2% (w/v) BSA] blocking solution to 2×10⁶ cells/ml, and added to a 96-well FACS reaction plate at 50 μl/well, and then the chimeric antibody test sample was added at 50 μl/well, and incubated on ice for 1 h. […] The obtained mixture was centrifuged and washed 3 times with a PBS buffer, and FACS (FACS CantoII, purchased from BD Company) was used for detection and result analysis. Data analysis was performed by software (Flowjo) to obtain the mean fluorescence intensity (MFI) of the cells. Then a software (GraphPad Prism8) was used for analysis, the analysis results are shown in Table 9 and FIGS. 9A-9C, 10A-10C and 11A-11C.
In general terms: A flow cytometer gives signals particle by particle.

Assay [2] has as its target hGPRC5D-LVP protein (human) (UniProt Q9NZD1). The experiment in a line: competitive ELISA, competitor Biotin-5F11; antibody at 0 nM. A general note: An ELISA detects its analyte on a solid surface through an enzyme-linked reagent.
Assay [3] concerns the target T1, human GPRC5D. Description: FACS, MolP-8 cells.
In assay [4] the target is T1, human GPRC5D. Description: FACS, RPMI-8226 cells. The procedure:
as §1

For assay [5], the target named is hGPRC5D-LVP protein (human) (UniProt Q9NZD1). The experiment in a line: competitive ELISA, competitor Biotin-5F11; antibody at 50.00 nM.
The target is the same in assay [6]. Description: competitive ELISA, competitor Biotin-5F11; antibody at 0.07 nM.
For assay [7] the target is unchanged. Description: competitive ELISA, competitor Biotin-5F11; antibody at 0.21 nM.
Assay [8] shares this target. Description: competitive ELISA, competitor Biotin-5F11; antibody at 5.56 nM.
For assay [9] the target is unchanged. Description: competitive ELISA, competitor Biotin-5F11; antibody at 16.67 nM.
Assay [10] has the same target. Description: competitive ELISA, competitor Biotin-5F11; antibody at 0.62 nM.
Assay [11] shares this target. The experiment in a line: competitive ELISA, competitor Biotin-5F11; antibody at 1.85 nM.
Assay [12] has as its target T1, human GPRC5D. Description: FACS, CHOK1-hGPRC5D high pool.
The target in assay [13] is T1, human GPRC5D. The experiment in a line: FACS, HEK293T-hGPRC5D high pool.
The target of assay [14] is monkey GPRC5D (monkey (cyno)). The experiment in a line: FACS, CHOK1-cynoGPRC5D high pool.
For assay [15], the target named is monkey GPRC5D (monkey (cyno)). The experiment in a line: FACS, HEK293T-cynoGPRC5D high pool.

Sequence of hGPRC5D-LVP protein (human) (Q9NZD1 whole entry): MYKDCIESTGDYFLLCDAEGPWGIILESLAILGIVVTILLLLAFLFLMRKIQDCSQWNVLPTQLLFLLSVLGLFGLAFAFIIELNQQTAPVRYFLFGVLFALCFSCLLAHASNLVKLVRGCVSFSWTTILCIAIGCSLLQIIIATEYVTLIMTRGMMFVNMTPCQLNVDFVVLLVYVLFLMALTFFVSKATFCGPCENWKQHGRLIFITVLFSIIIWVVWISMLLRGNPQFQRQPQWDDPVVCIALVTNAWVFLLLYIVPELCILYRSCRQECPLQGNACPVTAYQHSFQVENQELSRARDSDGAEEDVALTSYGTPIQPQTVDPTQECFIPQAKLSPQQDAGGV
T1 sequence (Q9NZD1 whole entry): as above
Sequence of monkey GPRC5D (monkey (cyno)) (Q9NZD1 other isoform, or with tags, fused parts or gaps): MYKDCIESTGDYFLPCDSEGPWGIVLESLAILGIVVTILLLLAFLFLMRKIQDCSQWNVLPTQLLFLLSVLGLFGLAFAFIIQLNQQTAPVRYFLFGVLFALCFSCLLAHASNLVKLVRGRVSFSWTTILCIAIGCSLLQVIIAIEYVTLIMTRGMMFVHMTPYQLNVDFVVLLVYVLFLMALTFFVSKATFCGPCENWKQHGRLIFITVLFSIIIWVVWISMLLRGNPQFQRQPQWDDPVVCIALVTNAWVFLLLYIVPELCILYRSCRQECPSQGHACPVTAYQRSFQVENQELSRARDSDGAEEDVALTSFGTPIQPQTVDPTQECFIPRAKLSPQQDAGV

As for anti-hel-hIgG1 (antibody), the Maximum mean fluorescence intensity with human GPRC5D [1] is 85 and 74; in the assay with human GPRC5D [3], 81 and 103 and 90; in the assay with human GPRC5D [4], 108 and 106 and 85. The OD450 was 1.22 and 0.57 and 0.94 in assay [2]; 1.16 and 0.63 and 0.89 in assay [5]; 1.24 and 0.62 and 0.92 in assay [6]; 1.27 and 0.68 and 0.87 in [7]; 1.14 and 0.69 and 0.87 in assay [8]; 1.15 and 0.65 and 0.9 in [9]. In addition, the OD450 is 1.2 and 0.67 and 0.88 in [10]; 1.16 and 0.7 and 0.89 in assay [11].

IgG subtype control (antibody) came in with a Mean fluorescence intensity in the assay with human GPRC5D [12] of 56.4. Further, the Cell mean fluorescence density in the assay with human GPRC5D [13] stood at 18.9. The Mean fluorescence density in [14] came to 52.9; in assay [15], 18.2.

B1: 5F11-hIgG1 (antibody, V domains shown)
VH: EVQLVESGGGLVQPGRSLKLSCAASGFSFSNYGMAWVRQAATKGLEWVASISTGGGNTYYRDSVKGRFIVSRDNAKNTQYLQMDSLRSEDTATYYCTRHDRGGLYWGQGVMVTVSS
VL: DIVMTQAPLSVSVTPGESASISCRSSKSLLHSNGITYVYWYFQKPGKSPQVLIYRMSNLASGVPDRFSGSGSETDFTLKISRVEAEDVGIYHCGQLLENPYTFGAGTELELKR
notes: Control antibody; VH and VL from WO 2019154890 A1 recombined into human IgG1 CH and CL expression vectors; also called h5F11-hIgG1; positive control antibody 5F11
With B1, the EC50 was 1.25 nM and 3.5 nM and 1.97 nM in the assay with human GPRC5D [1]; 3.17 nM and 2.86 nM and 6.48 nM in the assay with human GPRC5D [4].
